Laboratory results taken from PMC3824616.

Molecular target: human constitutively active c-Src, adenovirus-expressed (human) (UniProt P12931)
Assay: co-IP

B1: phospho-mimetic S116D eNOS mutant, adenovirus-expressed (enzyme)
chain: MGNLKSVGQEPGPPCGLGLGLGLGLCGKQGPASPAPEPSRAPAPATPHAPDHSPAPNSPTLTRPPEGPKFPRVKNWELGSITYDTLCAQSQQDGPCTPRCCLGSLVLPRKLQTRPDPGPPPAEQLLSQARDFINQYYSSIKRSGSQAHEERLQEVEAEVASTGTYHLRESELVFGAKQAWRNAPRCVGRIQWGKLQVFDARDCSSAQEMFTYICNHIKYATNRGNLRSAITVFPQRAPGRGDFRIWNSQLVRYAGYRQQDGSVRGDPANVEITELCIQHGWTPGNGRFDVLPLLLQAPDEAPELFVLPPELVLEVPLEHPTLEWFAALGLRWYALPAVSNMLLEIGGLEFSAAPFSGWYMSTEIGTRNLCDPHRYNILEDVAVCMDLDTRTTSSLWKDKAAVEINLAVLHSFQLAKVTIVDHHAATVSFMKHLDNEQKARGGCPADWAWIVPPISGSLTPVFHQEMVNYILSPAFRYQPDPWKGSATKGAGITRKKTFKEVANAVKISASLMGTLMAKRVKATILYASETGRAQSYAQQLGRLFRKAFDPRVLCMDEYDVVSLEHEALVLVVTSTFGNGDPPENGESFAAALMEMSGPYNSSPRPEQHKSYKIRFNSVSCSDPLVSSWRRKRKESSNTDSAGALGTLRFCVFGLGSRAYPHFCAFARAVDTRLEELGGERLLQLGQGDELCGQEEAFRGWAKAAFQASCETFCVGEEAKAAAQDIFSPKRSWKRQRYRLSTQAEGLQLLPGLIHVHRRKMFQATVLSVENLQSSKSTRATILVRLDTAGQEGLQYQPGDHIGICPPNRPGLVEALLSRVEDPPPPTESVAVEQLEKGSPGGPPPSWVRDPRLPPCTLRQALTFFLDITSPPSPRLLRLLSTLAEEPSEQQELETLSQDPRRYEEWKWFRCPTLLEVLEQFPSVALPAPLLLTQLPLLQPRYYSVSSAPNAHPGEVHLTVAVLAYRTQDGLGPLHYGVCSTWLSQLKTGDPVPCFIRGAPSFRLPPDPYVPCILVGPGTGIAPFRGFWQERLHDIESKGLQPAPMTLVFGCRCSQLDHLYRDEVQDAQERGVFGRVLTAFSREPDSPKTYVQDILRTELAAEVHRVLCLERGHMFVCGDVTMATSVLQTVQRILATEGDMELDEAGDVIGVLRDQQRYHEDIFGLTLRTQEVTSRIRTQSFSLQERHLRGAVPWAFDPPGPDTPGP
- percent reduction of co-immunoprecipitation against WT eNOS: 88%
